Molecular target: transcellular partners
Assay: cell-based or functional assay

## Soluble neuroligin-2 extracellular domain (receptor)
  half-maximal inhibition of insulin secretion by rat islets (20 mM glucose): 9 nM
